Earlier results on 1 substance are cited in article PMC12513479.

One series has as its target IFNAR1 (Homo sapiens) (UniProt P17181).
In another series the target is IFNAR2 (Homo sapiens) (UniProt P48551).
Sequence of UniProt P48551 (P48551 27-243): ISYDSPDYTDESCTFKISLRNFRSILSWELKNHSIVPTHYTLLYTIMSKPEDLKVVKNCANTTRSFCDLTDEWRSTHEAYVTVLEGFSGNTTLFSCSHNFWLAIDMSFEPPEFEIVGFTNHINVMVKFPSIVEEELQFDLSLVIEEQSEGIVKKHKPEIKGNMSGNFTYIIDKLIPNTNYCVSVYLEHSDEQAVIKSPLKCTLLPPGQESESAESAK

Sequence of UniProt P17181 (P17181 28-436): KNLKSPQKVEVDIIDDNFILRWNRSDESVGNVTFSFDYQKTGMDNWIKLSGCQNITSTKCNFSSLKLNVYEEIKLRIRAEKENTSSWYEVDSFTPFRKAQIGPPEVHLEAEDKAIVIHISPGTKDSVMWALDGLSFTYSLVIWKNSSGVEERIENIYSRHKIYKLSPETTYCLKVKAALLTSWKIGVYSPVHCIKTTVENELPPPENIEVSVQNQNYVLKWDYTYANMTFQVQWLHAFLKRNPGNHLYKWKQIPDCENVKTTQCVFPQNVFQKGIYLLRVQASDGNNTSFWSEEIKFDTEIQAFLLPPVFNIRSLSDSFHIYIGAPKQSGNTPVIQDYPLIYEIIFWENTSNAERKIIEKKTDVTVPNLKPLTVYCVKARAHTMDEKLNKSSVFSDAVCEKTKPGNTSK

Take IFN-β (from UniProt P01574): the Kd (as a rule, a measure of binding affinity in units of concentration) with IFNAR1 (Homo sapiens) was 100 nM; with IFNAR2 (Homo sapiens) it was 0.1 nM.
